Measurements reported in patent US12558435B2, “Transient inhibition of p53 in gene therapy” (Ospedale San Raffaele S.R.L., priority 2018, dated 2026).

B1: GSE56: p53 dominant negative peptide (SEQ ID No. 9), transiently overexpressed from electroporated mRNA (protein)
chain: MDGWCPGRDRRTEEENFRKKEEHCPELPPGSAKRALPTSTSSSPQQKKKPLDGEYFTLKIRGRERFEMFRELNEALELKDARAAEESGDSRAHSSYPKIVS
modifications: amino acid sequence of GSE56
B2: E4orf6/7: adenoviral protein from adenovirus serotype 5 E4 gene (SEQ ID No. 2), delivered as mRNA (protein)
chain: MTTSGVPFGMTLRPTRSRLSRRTPYSRDRLPPFETETRATILEDHPLLPECNTLTMHNAWTSPSPPVKQPQVGQQPVAQQLDSDMNLSELPGEFINITDERLARQETVWNITPKNMSVTHDMMLFKASRGERTVYSVCWEGGGRLNTRVL
modifications: delivered as mRNA; example amino acid sequence of Ad5-E4orf6/7

Experiments:
[1] = test system: APOBEC3H; assay: TaqMan assay of APOBEC3H gene expression; type: cell-based, human; details: 24 hours post-editing; FIG. 16G
Excerpt: (§1) For gene expression analyses, total RNA was extracted using the RNeasy Plus Micro Kit (QIAGEN). cDNA was synthetized with SuperScript VILO IV cDNA Synthesis Kit (Invitrogen) and used for Q-PCR in a Viia7 Real-time PCR thermal cycler using TaqMan Gene Expression Assays (Applied Biosystems) mapping to CDKN1A, RPS27L, PHLDA3, APOBEC3H, and HPRT as normalizer. The relative expression of each gene was first normalized to HPRT expression and then represented as fold change relative to the mock-treated sample.

[2] = test system: p53-target genes (CDKN1A, PHLDA3, RPS27L, APOBEC3H); assay: TaqMan expression of p53-target genes in edited CD34+ cells; type: cell-based, human; details: 24 hrs after electroporation; FIG. 3B
Excerpt: as §1

[3] = test system: human CD34+ cells; assay: Cell growth curve of edited CD34+ cells; type: cell-based
[4] = test system: human CD34+ cells; assay: Cell cycle analysis by Hoechst 33342 staining; type: cell-based; details: for cell cycle states (G1 to S/G2/M): bulk treated cells, 12-24 hours, FIG. 14H
Protocol: Cell cycle was analysed by flow cytometry (CytoFLEX LX; Beckman Coulter) at 12-24 hours post-editing by collecting 0.5-1×10^5 total HSPCs in culture. Cells were washed with PBS+2% FBS and stained by using 10 μg/ml Hoechst 33342 (Sigma-Aldrich) in PBS+2% FBS for 0.5-1 hour in final volume equal to 200 μl.

[5] = test system: CDKN1A; assay: TaqMan assay of CDKN1A gene expression; type: cell-based, human
Excerpt: as §1

[6] = test system: human CD34+ cells transplanted into NSG mice; assay: Xenotransplantation of edited human CD34+ cells in NSG mice; type: in vivo; details: limit cells dose T0eq=1×10^5/mouse; FIG. 19A
[7] = test system: HDR-edited human cells in NSG mice; assay: Barcoding-based clonal tracking of edited cells in transplanted NSG mice; type: in vivo; details: AAVS1; FIG. 12E
Excerpt: The barcoded AAV6 donor template targeting the AAVS1 locus was obtained by subcloning the degenerated sequence into the previously reported AAVS1 AAV6 transfer vector plasmid downstream of the polyadenylation sequence. Briefly, a ssODN embedding the random sequence flanked by the unique cloning restriction sites (Bsu36l and Sphl) was obtained from Sigma Aldrich. The degenerated region was designed to avoid any undesired cutting by cloning restriction enzymes. To generate the complementary strand, 50 pmol of the ssODN were amplified with 10 cycles of PCR with Easy-A High-Fidelity enzyme (Agilent Technologies) using the appropriate forward and reverse primers according to the manufacturer's instructions. The amplified product was purified with MinElute PCR Purification kit (QIAGEN), digested with the restriction enzymes and checked by capillary electrophoresis. 2 μg of the Bsu36l/Sphl-digested AAVS1 HDR donor template were ligated with the digested insert (molar ratio 1:7) using T4 DNA Ligase (NEB) by scaling up the manufacturer's protocol. […]
PCR amplicons for each individual sample were generated by one-step PCR using Taq G2 Hot Start Polymerase (Promega). […] PCR library amplicons were separately purified using MinElute PCR Purification kit (QIAGEN) and quality was assessed by Agilent Tapestation (Agilent Technologies). […]

[8] = test system: human primary T cells; assay: Gene editing of human primary T cells; type: cell-based; details: 20 days after treatment; bulk CD3+, CD4 and CD8 subpopulations; FIG. 9B
Excerpt: Finally, we tested the delivery of the E4orf6/7 mRNA together with the Cas9 ribonucleoprotein (RNP) into human primary T cells (peripheral blood derived total CD3+ cells) before AAV6 transduction for the delivery of the donor DNA template (FIG. 9A).

Row | Molecule | APOBEC3H expression [1] | amplitude of the p53-dependent transcriptional response (downstream target genes) [2] | expansion of treated HSPC ([3]; AAVS1 edited cells, FIG. 3D) | cell growth compared to standard RNP+AAV6 ([3]; days post-editing, FIG. 14B) | percentage of cells in S/G2/M phases ([4]; 24 hours after gene editing, FIG. 12A) | cell cycle states (G1 to S/G2/M) [4] | reduction of the amplitude of p21 (CDKN1A) activation compared to RNP+AAV6 ([5]; 24 hours post-editing, FIG. 16E) | engraftment of treated cells compared to standard protocol [6] | number of dominant clones in haematopoietic organs, vs standard [7] | increase in the percentage of GFP+ cells compared to standard [8] | CDKN1A expression compared to the standard ([5]; 12 hours post-editing, FIG. 16F)
1 | B1 | significantly down-regulated | reduce the amplitude of the p53-dependent transcriptional response | higher expansion | about 2 fold | partially rescued | lower and not significant | about 3 fold | 5-6 fold | 6.5 fold |  | 
2 | B2 | significantly down-regulated |  |  |  |  | significant transition from G1 phase to S/G2/M phases |  |  |  | 1.5 fold | about 2 fold
